Entries after “also recorded” stand apart in the source; their conditions may differ.
What was measured:
NCI-H1975 cells = test: Cell proliferation, NCI-H1975 cells stimulated with HGF; format: cell-based
Description: NCI-H1975 (ATCC CRL-5908) is a non-small cell lung cancer (NSCLC) cell line which expresses constitutively active mutated EGFR L858R and EGFR T790M (Kobayashi et al 2005). These mutations are acquired secondary mutations known to confer resistance to EGFR tyrosine kinase inhibitor (TKI) therapies in NSCLC patients. The NCI-H1975 cell line also expresses c-Met. […] The same method was used as in the U87MG assay described above, except that the NCI-H1975 cells were stimulated with HGF. One day before the treatment, the medium used was changed from containing 10% FBS to containing no serum. Treatments were added at various concentrations (0.003-300 nM) in the presence of 80 ng/ml HGF and incubated for 3 days at 37° C.

NCI-H596 cells = test: Cell proliferation, NCI-H596 cells stimulated with EGF and HGF; format: cell-based; conditions: NCI-H596, 10-1000 nM, 2 ng/ml EGF and 12 ng/ml HGF, 3 days
Description: NCI-H596 (ATCC HTB-178) is a lung adenosquamous cancer cell line that engages both the EGF and HGF signalling pathways and was used to investigate the ability of mAb^2 molecules to block proliferation. The same method was used as in the U87MG assay described above, except that the NCI-H596 cells were stimulated with both EGF and HGF ligands. One day before the treatment, the level of FBS used in the media was reduced from 10% to 1%. The next day treatments were added at various concentrations (10-1000 nM) in the presence of 2 ng/ml EGF (R&D systems, 236-EG) and 12 ng/ml HGF (PeproTech, 100-39) and incubated for 3 days at 37° C. Controls of HGF+EGF, EGF only, HGF only and no ligand stimulation were also included.

KP4 cells = test: Cell proliferation, KP4 cells (WST-1); format: cell-based; conditions: KP4, 0.003-300 nM, 3 days
Description: KP4 (Riken RCB1005) is a pancreatic ductal cell carcinoma which has autocrine production of HGF. […] After 3 days, cells were analysed using cell proliferation reagent WST-1 (Roche) to determine the number of viable cells as described in the manufacturer's protocol. The stable tetrazolium salt WST-1 is cleaved to a soluble formazan by the glycolytic production of NAD(P)H in viable cells. The amount of formazan dye formed is quantitated at absorbances 450 nm and 630 nm.

HGF = target: T1, HGF (Homo sapiens, UniProt P14210); test: Free HGF in culture media of U87MG cells (HGF Human ELISA Kit); format: cell-based; conditions: 30 nM, 4 days, compared to controls
T1 construct: examined in U87MG cells that secrete HGF; endogenous in cells; host or cells: U87MG
T1 sequence (P14210 32-728): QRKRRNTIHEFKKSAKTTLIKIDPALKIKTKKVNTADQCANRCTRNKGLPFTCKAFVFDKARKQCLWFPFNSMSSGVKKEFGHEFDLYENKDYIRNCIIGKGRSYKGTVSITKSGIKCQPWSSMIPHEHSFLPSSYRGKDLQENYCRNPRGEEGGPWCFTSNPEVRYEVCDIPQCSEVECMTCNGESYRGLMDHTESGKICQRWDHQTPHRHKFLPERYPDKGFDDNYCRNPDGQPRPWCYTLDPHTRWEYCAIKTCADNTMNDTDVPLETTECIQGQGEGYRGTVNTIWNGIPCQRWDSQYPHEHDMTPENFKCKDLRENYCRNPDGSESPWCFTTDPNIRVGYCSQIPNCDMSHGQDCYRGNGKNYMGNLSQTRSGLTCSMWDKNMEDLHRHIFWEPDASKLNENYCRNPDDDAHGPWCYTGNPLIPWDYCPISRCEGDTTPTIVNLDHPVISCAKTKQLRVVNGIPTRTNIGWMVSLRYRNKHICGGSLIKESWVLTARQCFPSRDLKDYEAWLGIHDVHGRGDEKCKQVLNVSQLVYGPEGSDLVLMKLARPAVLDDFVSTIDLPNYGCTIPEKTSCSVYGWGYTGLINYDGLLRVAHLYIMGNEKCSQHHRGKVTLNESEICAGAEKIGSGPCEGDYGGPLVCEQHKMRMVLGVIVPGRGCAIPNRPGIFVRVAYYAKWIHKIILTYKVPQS
Description: It was hypothesised that internalisation of HGF by anti-EGFR/HGF mAb^2 leads to reduced level of HGF in the system. To test this hypothesis, the change in level of free HGF caused by incubation with anti-EGFR/HGF mAb^2 was examined in U87MG cells that secrete HGF. U87MG cultures were incubated with different treatments at 30 nM for 4 days at 37° C. […] On day 4, the media from each cell culture were collected for HGF level analysis. HGF concentration was measured using HGF Human ELISA Kit (ThermoFisher, KAC2211) following the manufacturer's protocol. Using monoclonal anti-HGF antibodies, the free HGF in media was detected (free HGF was defined as HGF in the media which was bound by detection antibodies).

[1] = system: phosphorylation of c-Met and EGFR; test: Western blot of receptor phosphorylation in U87MG cells; format: cell-based, human; conditions: 200 nM, 20 min
Description: (§1) Overnight cultures of the glioblastoma cell line U87MG (ATCC HTB-14) were moved from a medium with 10% FBS to a low serum medium with 0.1% FBS to optimise sensitivity to ligand stimulation. The cells were incubated overnight. […] Controls without antibody treatment were included, with and without growth factor stimulation. The treated cells were lysed using lysis buffer (10 mM Tris® pH7.5, 150 mM NaCl, 1 mM EDTA) comprising 1:100 protease inhibitor cocktail (Calbiochem, 539131) and 1:100 Phosphatase inhibitor cocktail (Calbiochem, 524625) and the lysates collected for analysis.
(§2) Lysate samples were subjected to standard western blotting analysis using a 4-12% Bis-Tris® protein gel (ThermoFisher, NP0322BOX) and transferred to a nitrocellulose membrane (ThermoFisher, IB301001). The membrane was blocked with 5% Marvel milk/TBST and then probed for phospho-c-Met using a rabbit monoclonal antibody specific for c-Met phosphorylated at Tyr1234/1235 (Cell Signaling, 3077), phospho-EGFR using a mouse monoclonal antibody specific for EGFR phosphorylated at Tyr1068 (Cell Signaling, 2236), phospho-MAPK using a mouse monoclonal antibody specific for p44/42 MAPK (ERK1/2) phosphorylated at Thr202/Tyr204 (Cell Signaling, 9106), and phospho-Akt using a rabbit monoclonal antibody specific for Akt phosphorylated at Ser473 (Cell Signaling, 9271). […]

[2] = system: phosphorylation of MAPK and Akt; test: Western blot of downstream signalling in U87MG cells; format: cell-based, human; conditions: 200 nM (200+200 nM for combination), HGF and EGF present
Description: as §1, §2

HER3 = target: T2, HER3 (Homo sapiens, UniProt P21860); test: ELISA for specific binding within the HER receptor family; conditions: 1 μM, antigen coated at 1 μg/ml
T2 construct: purchased Sino Biological 10201-H08H
Description: Antigens including EGFR (produced in house), HER2 His Tag (Sino Biological, 10004-H08H), HER3 His Tag (Sino Biological, 10201-H08H) and HER4 His Tag (Sino Biological, 10363-H08H) were biotinylated using the Lightning-Link™ Biotin kit (Innova Biosciences, 704-0030) following the supplier's protocol. The biotinylated antigens were coated in different wells on MaxiSorp™ plate (Nunc) at 1 μg/ml in PBS overnight at 4° C. and excess unbound antigens were washed off with PBS. The antigen-coated plate was blocked with 1% TWEEN® in PBS (PBST) for 1 hour at room temperature. After removing PBST, the anti-EGFR Fcabs (1 μM) and relevant positive and IgG negative antibody controls (1 μM) in 0.1% PBST were incubated for 1 hour to bind the coated antigens followed by washing. The bound Fcabs or antibodies were detected by Protein A-HRP (ThermoFisher 101023) or anti-mouse IgG-horseradish peroxidase (HRP) (Sigma A9044) for the HER4 positive control. Tetramethylbenzidine (TMB) (eBioscience 00-4201-56) was used as the substrate to interact with HRP enzyme for colorimetric detection. 1 M Sulphuric acid was added to stop the enzyme-substrate reaction. The plate was read at an absorbance of 450 nm subtracted by 630 nm as background.

binding to HER3 (HER3) | Molecule | reduction of cell proliferation induced by HGF (NCI-H1975 cells; NCI-H1975, 0.003-300 nM, 80 ng/ml HGF, 3 days) | reduction of cell proliferation induced by HGF (NCI-H1975 cells; NCI-H1975, antibodies 300 nM with and without erlotinib (2 μM)) | inhibition of cell proliferation induced by HGF and EGF (NCI-H596 cells) | reduction in cell proliferation (WST-1) (KP4 cells) | concentration of free HGF in the media (HGF) | block of phosphorylation of c-Met by HGF [1] | block of phosphorylation of MAPK and Akt [2]
– | ficlatuzumab (antibody, V domains shown, FI VH domain; FI VL domain) VH: QVQLVQPGAEVKKPGTSVKLSCKASGYTFTTYWMHWVRQAPGQGLEWIGEINPTNGHTNYNQKFQGRATLTVDKSTSTAYMELSSLRSEDTAVYYCARNYVGSIFDYWGQGTLLTVSS VL: DIVMTQSPDSLAMSLGERVTLNCKASENVVSYVSWYQQKPGQSPKLLIYGASNRESGVPDRFSGSGSATDFTLTISSVQAEDVADYHCGQSYNYPYTFGQGTKLEIKR | did not | No effect | unable to block stimulation when both ligands were present | concentration-dependent reduction in cell proliferation; also recorded: inhibited cell proliferation, but to a lesser extent | significant decrease in the concentration of free HGF in the media | able to block the phosphorylation of c-Met by HGF | unable to block the phosphorylation of MAPK and Akt
bound to their corresponding antigens | MM121: antibody MM121 (Merrimack), positive control for HER3 (antibody, chains of the INN, looked up) heavy: EVQLLESGGGLVQPGGSLRLSCAASGFTFSHYVMAWVRQAPGKGLEWVSSISSSGGWTLYADSVKGRFTISRDNSKNTLYLQMNSLRAEDTAVYYCTRGLKMATIFDYWGQGTLVTVSSASTKGPSVFPLAPCSRSTSESTAALGCLVKDYFPEPVTVSWNSGALTSGVHTFPAVLQSSGLYSLSSVVTVPSSNFGTQTYTCNVDHKPSNTKVDKTVERKCCVECPPCPAPPVAGPSVFLFPPKPKDTLMISRTPEVTCVVVDVSHEDPEVQFNWYVDGVEVHNAKTKPREEQFNSTFRVVSVLTVVHQDWLNGKEYKCKVSNKGLPAPIEKTISKTKGQPREPQVYTLPPSREEMTKNQVSLTCLVKGFYPSDIAVEWESNGQPENNYKTTPPMLDSDGSFFLYSKLTVDKSRWQQGNVFSCSVMHEALHNHYTQKSLSLSPG light: QSALTQPASVSGSPGQSITISCTGTSSDVGSYNVVSWYQQHPGKAPKLIIYEVSQRPSGVSNRFSGSKSGNTASLTISGLQTEDEADYYCCSYAGSSIFVIFGGGTKVTVLGQPKAAPSVTLFPPSSEELQANKATLVCLVSDFYPGAVTVAWKADGSPVKVGVETTKPSKQSNNKYAASSYLSLTPEQWKSHRSYSCRVTHEGSTVEKTVAPAECS | – | – | – | – | – | – | –

— patent publication US11629193B2, “EGFR binding molecules” (F-STAR BETA LIMITED, priority 2016, dated 2023)
